In patent US20220088057:

System: GST-fusion SMAD3 protein (Sigma-Aldrich Co. LLC.)

Substance: His-fusion NEK6 protein (Eurofins Scientific SE)
- amount of phosphorylated SMAD3 (Western blot after in vitro kinase reaction of purified proteins with ATP): By using NEK6 protein, the amount of phosphorylated SMAD3 was elevated
